Tests used:
[1] = molecular target: PorXFj (Fjoh_2906), the Flavobacterium johnsoniae PorX homolog, purified, not phosphorylated (Flavobacterium johnsoniae) (UniProt A5FFU4); test: SEC-MALS; PorXFj 1.6 mg/mL incubated 1 h at RT with 100 uM ZnCl2; column equilibrated in PBS only
[2] = molecular target: PorXFj (Fjoh_2906), the Flavobacterium johnsoniae PorX homolog, purified, not phosphorylated (Flavobacterium johnsoniae) (UniProt A5FFU4); test: SEC; PorXFj 1.6 mg/mL incubated 1 h at RT with 100 uM MnCl2; Superdex 200 Increase 10/300 GL in PBS with 100 uM MnCl2
[3] = molecular target: PorXFj (Fjoh_2906), the Flavobacterium johnsoniae PorX homolog, purified, not phosphorylated (Flavobacterium johnsoniae) (UniProt A5FFU4); test: SEC; PorXFj 1.6 mg/mL incubated 1 h at RT with 100 uM CuCl2; Superdex 200 Increase 10/300 GL in PBS with 100 uM CuCl2
[4] = molecular target: PorXFj (Fjoh_2906), the Flavobacterium johnsoniae PorX homolog, purified, not phosphorylated (Flavobacterium johnsoniae) (UniProt A5FFU4); test: SEC; PorXFj 1.6 mg/mL incubated 1 h at RT with 100 uM ZnCl2; Superdex 200 Increase 10/300 GL in PBS with 100 uM ZnCl2
[5] = molecular target: phosphorylated PorXFj (PorXFj incubated with acetyl phosphate and MgCl2) (Flavobacterium johnsoniae) (UniProt A5FFU4); test: SEC-MALS; PorXFj 1.6 mg/mL incubated 1 h at RT with 20 mM AcP + 10 mM MgCl2; Superdex 200 Increase 10/300 GL in PBS

stoichiometry N [1] | stoichiometry N [2] | stoichiometry N [3] | stoichiometry N [4] | stoichiometry N [5] | Substance
2 | 2 | 2 | 2 |  | PorXFj (Fjoh_2906), the Flavobacterium johnsoniae PorX homolog, purified, not phosphorylated (from UniProt A5FFU4 1-517) (natural protein)
 |  |  |  | 2 | phosphorylated PorXFj (PorXFj incubated with acetyl phosphate and MgCl2) (from UniProt A5FFU4 1-517) (natural protein)
